Measured values taken from US20070203061, “Adiponectin expression-inducing agents and uses thereof” (TOUDAI TLO, LTD, published 2007).

Target: FLAG-KLF9 (UniProt O35739 SEQ:1-244)
Assay: EMSA; purified FLAG-KLF9 with 32-bp fragment, similar to adipocyte nuclear extract
Details: tags: FLAG; label: 32P
Experimental: […] were prepared from 293T cells, 3T3L1 adipocytes, or white adipose tissue according to a reported method (Almoguera, C. et al., J. Biol. Chem. 277, 43866-43872 (2002)). Double-stranded oligonucleotides used for the electrophoretic mobility shift assay were prepared by annealing both strands. Labeled probes (3,000 to 10,000 cpm) and the nuclear extracts were mixed in a reaction solution (20 μL: 10 mM Tris-HCl (pH7.6), 50 mM KCl, 0.05 mM EDTA, 2.5 mM MgCl₂, 8.5% glycerol, 1 mM dithiothreitol, 0.5 μg/mL of poly(dI-dC), 0.1% Triton X, and 1 mg/mL of skim milk), and incubated for 30 minutes on ice. The DNA-protein complexes were fractionated on a 4.6% polyacrylamide gel at 140 V for 1 hour at 4° C. The Gel was dried and exposed using a BAS2000 filter with BAStation software (Fuji Photo Film).

Chain of FLAG-KLF9 (O35739 other isoform, or with tags, fused parts or gaps): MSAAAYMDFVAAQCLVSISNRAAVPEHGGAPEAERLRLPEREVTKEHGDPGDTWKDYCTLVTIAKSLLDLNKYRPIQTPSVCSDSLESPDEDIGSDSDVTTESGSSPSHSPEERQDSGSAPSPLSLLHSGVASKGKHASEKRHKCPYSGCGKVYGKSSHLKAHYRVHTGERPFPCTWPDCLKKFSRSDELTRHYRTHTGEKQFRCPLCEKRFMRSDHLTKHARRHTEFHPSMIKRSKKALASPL

B1: adiponectin promoter -188/-157 32-bp element (dsDNA)
DNA 1: GAAGCCCAAGCTGGGTTGTACCAGGTTCCCTA
DNA 2: TAGGGAACCTGGTACAACCCAGCTTGGGCTTC
B1: binds.
